According to publication doi:10.1101/294439:
Values belong to the substance of their own block, whether it stands above or below them.

Columns and labels:
Test in all cases: SEC
[1] = target: Piper methysticum chalcone synthase (PmCHS) (kava (Piper methysticum))
[2] = target: Piper methysticum kavalactone reductase 1 (PmKLR1) (kava (Piper methysticum))
[3] = target: Piper methysticum styrylpyrone synthase 1 (PmSPS1) (kava (Piper methysticum))
[4] = target: Piper methysticum styrylpyrone synthase 2 (PmSPS2) (kava (Piper methysticum))

stoichiometry N [1]: 2
Substance: Piper methysticum chalcone synthase (PmCHS) (enzyme)

stoichiometry N [2]: 2
Substance: Piper methysticum kavalactone reductase 1 (PmKLR1) (enzyme)

stoichiometry N [3]: 2
Substance: Piper methysticum styrylpyrone synthase 1 (PmSPS1) (enzyme)

stoichiometry N [4]: 2
Substance: Piper methysticum styrylpyrone synthase 2 (PmSPS2) (enzyme)
